Source: publication PMC5624926 (Nature Communications, 2017)

Experiments:
Settings in all cases: both partners purified
CD22_(20–687) = molecular target: T1, CD22_(20–687) (human, UniProt P20273, N-linked glycans; glycoform not stated); assay: negative-stain electron microscopy; CD22_(20–687) in complex with epratuzumab Fab, 2% uranyl formate stain; 2D class averages and ab initio 3D envelope
T1 construct: also called full-length CD22 ECD; not shown: His6, C-terminal, kept

CD22_(20–687)F N231Q = molecular target: T2, CD22_(20–687)F N231Q (human, UniProt P20273, N231Q, N-linked glycans with mature carbohydrates (HEK293F); glycosylation site N231 knocked out); assay: BLI; Octet RED96; CD22_(20–687) forms loaded on Ni-NTA biosensors; Fab in solution 500 to 62.5 nM; 1x PBS pH 7.4, 0.002% Tween, 0.01% BSA; 1:1 fit; triplicate
T2 construct: also called CD22 N231Q mutant; source: HEK293F, transiently transfected, secreted, purified (Ni-NTA, Superdex 200); not shown: His6, C-terminal, kept

CD22_(20–687)S = molecular target: T3, CD22_(20–687)S (human, UniProt P20273, N-linked glycans of high mannose type (HEK293S)); assay: as above
T3 construct: differs in the glycoform; also called full-length CD22 ECD made in HEK293S (HEK293 Gnt I−/−); source: HEK293 Gnt I−/− (HEK293S), transiently transfected, secreted, purified (Ni-NTA, Superdex 200); not shown: His6, C-terminal, kept

binding result (CD22_(20–687)): binds
fold improvement in affinity against WT CD22 (CD22_(20–687)F N231Q): 6 fold
fold increase in on-rate against WT CD22 (CD22_(20–687)F N231Q): 25 fold
binding result (CD22_(20–687)S): binds
B1: epratuzumab Fab (Fab, V domains shown)
VH: QVQLVQSGAEVKKPGSSVKVSCKASGYTFTSYWLHWVRQAPGQGLEWIGYINPRNDYTEYNQNFKDKATITADESTNTAYMELSSLRSEDTAFYFCARRDITTFYWGQGTTVTVSS
VL: DIQLTQSPSSLSASVGDRVTMSCKSSQSVLYSANHKNYLAWYQQKPGKAPKLLIYWASTRESGVPSRFSGSGSGTDFTLTISSLQPEDIATYYCHQYLSSWTFGGGTKLEIK
notes: heavy chain of the epratuzumab Fab, gene synthesized by GeneArt; PDB 5VL3, complex with CD22; light chain of the epratuzumab Fab, gene synthesized by GeneArt; Therapeutic anti-CD22 antibody, used as Fab; purified on KappaSelect, so the light chain should be kappa (surmised); source: HEK293F, heavy and light chain co-transfected, purified (KappaSelect, MonoS, Superdex 200)
